Positions count from the first letter of the chain named. Numbers in names are those of the source.

Series [1] deals with T1, npr1(L281D)-HA (Arabidopsis thaliana, UniProt P93002 1-593).
T1 construct: not shown: C-terminal HA tag from vector pLN462
T1 sequence: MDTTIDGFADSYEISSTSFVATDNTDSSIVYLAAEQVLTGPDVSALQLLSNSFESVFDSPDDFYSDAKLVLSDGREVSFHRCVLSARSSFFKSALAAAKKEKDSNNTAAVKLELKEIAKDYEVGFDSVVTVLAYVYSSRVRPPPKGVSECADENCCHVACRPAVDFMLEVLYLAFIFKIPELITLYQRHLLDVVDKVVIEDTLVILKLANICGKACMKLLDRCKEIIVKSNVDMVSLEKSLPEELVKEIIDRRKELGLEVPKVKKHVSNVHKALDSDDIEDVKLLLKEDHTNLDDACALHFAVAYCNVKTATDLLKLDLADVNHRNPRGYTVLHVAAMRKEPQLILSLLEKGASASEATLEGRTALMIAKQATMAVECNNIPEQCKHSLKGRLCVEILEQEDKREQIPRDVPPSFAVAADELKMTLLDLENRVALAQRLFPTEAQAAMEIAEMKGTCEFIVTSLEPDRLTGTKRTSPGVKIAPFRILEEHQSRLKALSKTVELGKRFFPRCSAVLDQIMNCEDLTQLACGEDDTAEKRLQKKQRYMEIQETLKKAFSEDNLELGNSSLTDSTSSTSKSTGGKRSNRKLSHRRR
Put plainly: co-immunoprecipitation after transient co-expression in N. benthamiana. The method, then:
(§1) For plant transformations, the Agrobacterium tumefaciens strain GV3101 was transformed with plant binary vectors carrying the indicated transgenes. For stable expression in Arabidopsis, a floral dipping method was used. For transient expression in N. benthamiana, the Agrobacterium carrying the indicated construct was cultured over-night at 28° C. in LB broth medium supplemented with appropriate antibiotics: spectinomycin (100 μg ml-1), kanamycin (50 μg ml-1), gentamycin (50 μg ml-1) and rifampicin (25 μg ml-1). The obtained culture was re-inoculated at 1:10 into fresh growth medium with antibiotics and grown for another 4 h. Cells were then centrifuged at 1,600g for 10 min, and inoculum was prepared by resuspending cells to an OD600 of 1 in double-distilled water containing 200 μM acetosyringone (Sigma-Aldrich). The co-expression assays were per-formed with a 1:1 mixture of Agrobacteria inoculums. The inoculum was pressure-infiltrated into N. benthamiana leaves at the abaxial side using 1 ml syringe without the needle.
(§2) Recombinant protein analysis, co-immunoprecipitation and cell-free oligomerization were performed using total protein extracts from the transient expression assay in N. benthamiana as described previously. Interaction analysis of NPR1-HA with TGA3-mRFP or NPR1-GFP (self-interaction), was performed in vivo by transiently co-expressing the two proteins in N. benthamiana followed by treatment with water (mock) or 1 mM SA for 5 h. Total protein was extracted and used for co-immunoprecipitation with anti-RFP or anti-HA beads, respectively. In the NPR1-HA/TGA3-mRFP interaction experiments the npr1-1-HA was used as a negative control. Interaction between GST-NPR1 and Myc-CUL3A was performed by co-expression in E. coli as described. For western blotting under reducing conditions, the SDS sample buffer was added to the protein extracts from a 4× stock solution supplemented with 50 mM DTT and 715 mM B-mercaptoethanol. For western blotting under non-reducing conditions, a DDT-and B-mercaptoethanol-free SDS sample buffer was used. […]

The target of series [2] is T2, npr1(A151P/D152R)-HA (Arabidopsis thaliana, UniProt P93002 1-593).
T2 construct: not shown: C-terminal HA tag from vector pLN462
T2 sequence: T1 sequence with A151P, D152R, D281L
The series is described as above. The procedure:
as §1, §2

Series [3] addresses T3, npr1(L284D)-HA (Arabidopsis thaliana, UniProt P93002 1-593).
T3 construct: not shown: C-terminal HA tag from vector pLN462
T3 sequence: T1 sequence with D281L, L284D
Described as above. The method, then: as §1, §2

The target in series [4] is T4, npr1(dim)-HA (Arabidopsis thaliana, UniProt P93002 1-593).
T4 construct: also called L49D/F53D/V56D/V83K; not shown: C-terminal HA tag from vector pLN462
T4 chain: T1 sequence with L49D, F53D, V56D, V83K, D281L
Put plainly: co-immunoprecipitation of GFP- and HA-fused proteins with anti-HA beads, N. benthamiana, with and without SA. The procedure:
as §1
Recombinant protein analysis, co-immunoprecipitation and cell-free oligomerization were performed using total protein extracts from the transient expression assay in N. benthamiana as described previously. […]

Series [5] deals with the molecule itself. Put plainly: size-exclusion chromatography (later elution than WT) and low-resolution cryo-EM (single-wing shape).

B1: TGA3-mRFP (other, Arabidopsis thaliana, UniProt Q39234 1-384, looked up)
chain: MEMMSSSSSTTQVVSFRDMGMYEPFQQLSGWESPFKSDINNITSNQNNNQSSSTTLEVDARPEADDNNRVNYTSVYNNSLEAEPSSNNDQDEDRINDKMKRRLAQNREAARKSRLRKKAHVQQLEESRLKLSQLEQELVRARQQGLCVRNSSDTSYLGPAGNMNSGIAAFEMEYTHWLEEQNRRVSEIRTALQAHIGDIELKMLVDSCLNHYANLFRMKADAAKADVFFLMSGMWRTSTERFFQWIGGFRPSELLNVVMPYVEPLTDQQLLEVRNLQQSSQQAEEALSQGLDKLQQGLVESIAIQIKVVESVNHGAPMASAMENLQALESFVNQADHLRQQTLQQMSKILTTRQAARGLLALGEYFHRLRALSSLWAARPREHT
notes: Transiently co-expressed in N. benthamiana; pulled down with anti-RFP beads; also called AtTGA3; AT1G22070; not shown: C-terminal mRFP from vector pSITE-4NB
Turning to B1, the binding result in series [1], in series [2] and in series [3] was “no binding” each time.

B2: npr1(dim)-GFP (other)
chain: T1 sequence with L49D, F53D, V56D, V83K, D281L
notes: also called L49D/F53D/V56D/V83K; not shown: C-terminal eGFP from vector pK7FWG2
Consider B2, for which, in series [4], the binding result is reported as “no binding”.

B3: npr1(dim) mutant (L49D/F53D/V56D/V83K) with C-terminal Strep tag, expressed in insect cells (other)
chain: T1 sequence with L49D, F53D, V56D, V83K, D281L
notes: Full-length; His10-GST removed; Monomeric by size exclusion and low-resolution cryo-EM; not shown: C-terminal Strep tag
In the case of B3, the binding result in series [5] is given as “no binding”.

(Values after US20240368617A1, “NPR1 VARIANT TO ENHANCE PLANT RESISTANCE TO BIOTIC AND ABIOTIC STRESSES AND METHOD THEREOF” (Duke University, published 2024).)
